What was measured:
[1] = molecular target: recombinant hSIRPa-His (Sino Biologicals, reference 11612-H08H) (human) (UniProt P78324); test: ELISA, immobilized hSIRPa-His, anti-human IgG detection
[2] = molecular target: SIRPγ on peripheral human CD3+ T cells (human) (UniProt Q9P1W8); test: flow cytometry on human CD3+ T cells, antibody at 10 micrograms/ml
[3] = molecular target: SIRPγ on peripheral human CD3+ T cells (human) (UniProt Q9P1W8); test: flow cytometry on peripheral human CD3+ T cells, 10 µg/ml; Exp 1 HV1
[4] = molecular target: SIRPγ on peripheral human CD3+ T cells (human) (UniProt Q9P1W8); test: flow cytometry on peripheral human CD3+ T cells, 10 µg/ml; Exp 1 HV2
[5] = molecular target: SIRPa on human monocytes (human) (UniProt P78324); test: flow cytometry on human monocytes v1/v1 (Fc receptors blocked), PE anti-human Fc; readout MFI
[6] = molecular target: recombinant hSIRPb-His (Antibodies-online, reference ABIN3077231) (human) (UniProt Q5TFQ8); test: BLI (Blitz): SIRPb-His on Ni-NTA biosensor, antibody at 20 µg/ml; 120 s association, 120 s dissociation
recombinant hSIRPb-His (Antibodies-online, reference ABIN3077231) (human), sequence (Q5TFQ8 30-371): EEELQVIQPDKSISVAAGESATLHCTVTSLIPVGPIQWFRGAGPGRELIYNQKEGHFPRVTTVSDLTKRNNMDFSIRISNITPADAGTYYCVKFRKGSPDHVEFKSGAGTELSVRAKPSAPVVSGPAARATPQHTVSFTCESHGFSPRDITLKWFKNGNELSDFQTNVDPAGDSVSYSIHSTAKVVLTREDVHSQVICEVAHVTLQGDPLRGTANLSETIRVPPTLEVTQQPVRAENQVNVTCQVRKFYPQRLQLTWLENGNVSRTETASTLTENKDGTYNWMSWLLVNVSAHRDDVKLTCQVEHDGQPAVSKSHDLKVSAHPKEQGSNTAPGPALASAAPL

[7] = molecular target: SIRPa on human monocytes (human) (UniProt P78324); test: flow cytometry on human monocytes v1/v1 (Fc receptors blocked), PE anti-human Fc; readout % stained monocytes
[8] = molecular target: recombinant hSIRPa-His (Sino Biologicals, reference 11612-H08H) (human) (UniProt P78324); test: SPR (Biacore 3000); SIRPa-His immobilised on a CM5 chip (500 RU), antibody injected; 3 min association, 10 min dissociation
[9] = molecular target: recombinant hSIRPg-His (Sino Biologicals, reference 11828-H08H) (human) (UniProt Q9P1W8); test: BLI (Blitz): SIRPg-His on Ni-NTA biosensor, antibody at 10 µg/ml or 20 µg/ml (Example 9); 120 s association, 120 s dissociation
recombinant hSIRPg-His (Sino Biologicals, reference 11828-H08H) (human), sequence (Q9P1W8 29-360): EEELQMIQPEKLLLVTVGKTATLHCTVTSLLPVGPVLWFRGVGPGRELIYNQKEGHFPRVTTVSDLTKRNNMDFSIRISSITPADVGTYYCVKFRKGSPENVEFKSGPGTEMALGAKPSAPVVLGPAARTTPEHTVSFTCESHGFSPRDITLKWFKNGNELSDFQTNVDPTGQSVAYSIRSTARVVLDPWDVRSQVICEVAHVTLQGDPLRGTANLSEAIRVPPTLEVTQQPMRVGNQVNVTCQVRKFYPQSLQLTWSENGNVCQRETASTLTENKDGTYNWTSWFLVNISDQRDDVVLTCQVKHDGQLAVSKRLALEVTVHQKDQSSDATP

SIRPγ on peripheral human CD3+ T cells (human), sequence (Q9P1W8 29-387): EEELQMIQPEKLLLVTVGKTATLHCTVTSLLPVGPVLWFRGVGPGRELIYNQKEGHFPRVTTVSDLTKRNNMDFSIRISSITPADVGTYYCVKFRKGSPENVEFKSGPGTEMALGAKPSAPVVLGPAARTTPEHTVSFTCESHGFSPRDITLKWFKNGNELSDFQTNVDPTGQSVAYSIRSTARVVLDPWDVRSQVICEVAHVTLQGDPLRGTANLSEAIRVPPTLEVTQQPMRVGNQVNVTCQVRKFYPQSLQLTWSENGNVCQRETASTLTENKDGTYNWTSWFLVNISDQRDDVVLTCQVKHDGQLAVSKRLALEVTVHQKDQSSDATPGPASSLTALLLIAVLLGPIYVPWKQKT

B1: anti-human SIRPa antibody Kwar23 (Creative Biolabs) (antibody, from a related filing, V domains shown)
VH: EVQLQQSGAELVKPGASVKLSCTASGFNIKDYYIHWVQQRTEQGLEWIGRIDPEDGETKYAPKFQDKATITADTSSNTAYLHLSSLTSEDTAVYYCARWGAYWGQGTLVTVSS
VL: QIVLTQSPAIMSASPGEKVTLTCSASSSVSSSYLYWYQQKPGSSPKLWIYSTSNLASGVPARFSGSGSGTSYSLTISSMEAEDAASYFCHQWSSYPRTFGAGTKLELK
[1]
  EC50: 0.0033 µg/mL
[2]
  percent of T cells stained: > 70%
[3]
  % of positive T-cells: 80%
[4]
  % of positive T-cells: 89.3%
[5]
  EC50: 0.378 µg/mL
[6]
  Kd: 2.77 nM
[7]
  EC50: 0.26 µg/mL
[8]
  Kd: 0.367 nM
[9]
  Kd: 2.14 nM
